Source: patent US8119572B2, “Methods for determining protein binding specificity using peptide libraries” (Wisconsin Alumni Research Foundation, priority 2005, dated 2012)
No end group written: not given here.

Molecular target: T1, SIRT1 (Homo sapiens, UniProt Q96EB6)
T1 construct: made in house
T1 sequence (Q96EB6 1-747): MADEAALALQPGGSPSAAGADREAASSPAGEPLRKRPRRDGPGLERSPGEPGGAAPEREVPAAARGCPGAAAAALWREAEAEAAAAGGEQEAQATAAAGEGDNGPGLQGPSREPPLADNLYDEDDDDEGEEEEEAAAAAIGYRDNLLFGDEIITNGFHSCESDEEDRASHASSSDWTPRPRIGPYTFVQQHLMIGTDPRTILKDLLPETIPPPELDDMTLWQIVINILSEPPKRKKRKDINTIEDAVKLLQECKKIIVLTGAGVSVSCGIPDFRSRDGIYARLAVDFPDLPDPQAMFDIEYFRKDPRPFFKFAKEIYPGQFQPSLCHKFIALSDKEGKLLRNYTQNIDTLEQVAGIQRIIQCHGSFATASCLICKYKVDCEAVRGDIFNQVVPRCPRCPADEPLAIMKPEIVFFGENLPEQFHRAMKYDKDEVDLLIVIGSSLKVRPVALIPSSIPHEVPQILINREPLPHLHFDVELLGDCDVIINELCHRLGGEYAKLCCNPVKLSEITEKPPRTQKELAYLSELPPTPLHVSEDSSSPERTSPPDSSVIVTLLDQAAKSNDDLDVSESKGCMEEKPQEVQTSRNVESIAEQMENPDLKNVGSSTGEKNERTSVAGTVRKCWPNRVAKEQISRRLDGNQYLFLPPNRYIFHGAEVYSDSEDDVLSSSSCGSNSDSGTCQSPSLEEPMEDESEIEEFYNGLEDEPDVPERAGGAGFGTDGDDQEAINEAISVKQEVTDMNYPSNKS
Assay: Radioactive TLC-based [32P]-NAD+ in-solution kinetic analysis of resynthesized hits and non-hits
Assay type: biochemical
Conditions: for fold difference in catalytic activity in favor over WP(AcK)QQ: compared with WP(AcK)QQ, Table 3 values
Description: All solution phase Sir2 assays were carried out at 25° C. in 50 mM Tris.HCl. Reactions were done in 50-100 μL with 0.1-1.5 μM enzyme, 0.1-1.2 mM NAD^+, 0.5-1000 μM peptide and 1 mM DTT. Reaction mixtures were quenched with TFA to a final concentration of 1% after 5-10 min and nicotinamide levels were quantitated by HPLC at 264 nm.
Alternatively, [^32P]-NAD^+ (10 mCi/mL) was used in assays and quenched reaction mixtures were spotted on a silica TLC plate and run in a chamber containing 60% ethanol and 40 2.5 mM ammonium acetate for 3-4 hours. Levels of ^32P-OAADPr and ^32P-NAD^+ were then quantitated by phosphorimaging and the fraction turnover was calculated. Saturation curves were done at varying concentrations of peptide while holding that of NAD^+ constant. Time points were chosen such that product formation never exceeded 20% conversion and data were plotted as rate (s^−1) vs. peptide concentration. Plots were fitted to the Michaelis-Menten equation, v=[(kcat/Km)[S]]/(1+[S]/Km) using Kaleidagraph software (Reading, Pa.) to extract Km and kcat/Km.
To validate the results of the library screen, select hits and non-hits were resynthesized and subjected to in-solution kinetic analysis (Table 3). A radioactive TLC-based assay was employed with subsaturating levels of [^32P]-NAD^+ to determine the relative catalytic efficiencies (Jackson et al., 2003, J. Biol. Chem. 278: 50985-50998). In addition, two “consensus” peptides containing residues occurring with the highest and lowest frequency at each position, independent of context, were analyzed. For comparison, a 5-mer comprised of a sequence corresponding to a known site for p53 deacetylation by SIRT1 was assayed (Table 3).
In Table 3, efficiencies (^x=average) were obtained by fitting the data from [^32P]-NAD^+ assays to the modified Michaelis-Menten equation, v=[(kcat/Km)[S]]/(1+[S]/Km). […] Catalytic efficiencies of peptides containing the residues of the highest^b/lowest^c frequency at each position and the sequence relevant to p53 deacetylation in vivo^d are shown for comparison.

Row | Substance | catalytic activity, comparison of hits and non-hits in words (in-solution kinetic analysis) | fold difference in catalytic activity in favor over WP(AcK)QQ
1 | AY(AcK)EV (Ac-AYK(Ac)EV) [resynthesized select non-hit] | comparable to those of a few of the hits | 
2 | QP(AcK)QI (Ac-QPK(Ac)QI) [resynthesized select hit of SIRT1 library screen] |  | 18 fold
3 | WH(AcK)QQ (Ac-WHK(Ac)QQ) |  | seven
